Laboratory results published in ChEMBL document CHEMBL2074012, “Multidrug resistance protein (MRP) 1 and MRP3 attenuate cytotoxic and transactivating effects of the cyclopentenone prostaglandin, 15-deoxy-Delta(12,14)prostaglandin J2 in MCF7 breast cancer cells” (Biochemistry, 2003).

Tests used:
Format in all cases: functional, cell-based
[1] = substrate: N[C@@H](CCC(=O)N[C@H](CSCCCCC/C=C/C=C1/C(=O)C=C[C@@H]1C/C=C\CCCC(=O)O)C(=O)NCC(=O)O)C(=O)O; assay: (§1) TP_TRANSPORTER: uptake in MRP3-expressing MCF7 cells
[2] = substrate: CN(Cc1cnc2nc(N)nc(N)c2n1)c1ccc(C(=O)N[C@@H](CCC(=O)O)C(=O)O)cc1; assay: as §1
[3] = substrate: N[C@@H](CCC(=O)N[C@H](CSCCCCC/C=C/C=C1/C(=O)C=C[C@@H]1C/C=C\CCCC(=O)O)C(=O)NCC(=O)O)C(=O)O; assay: (§2) TP_TRANSPORTER: uptake in MRP1-expressing MCF7 cells
[4] = substrate: CN(Cc1cnc2nc(N)nc(N)c2n1)c1ccc(C(=O)N[C@@H](CCC(=O)O)C(=O)O)cc1; assay: as §2

Protein | Km [1] | Km [2] | Km [3] | Km [4]
Multidrug resistance associated protein (Homo sapiens), Q96QA9 (protein) MDALCGSGELGSKFWDSNLSVHTENPDLTPCFQNSLLAWVPCIYLWVALPCYLLYLRHHCRGYIILSHLSKLKMVLGVLLWCVSWADLFYSFHGLVHGRAPAPVFFVTPLVVGVTMLLATLLIQYERLQGVQSSGVLIIFWFLCVVCAIVPFRSKILLAKAEGEISDPFRFTTFYIHFALVLSALILACFREKPPFFSAKNVDPNPYPETSAGFLSRLFFWWFTKMAIYGYRHPLEEKDLWSLKEEDRSQMVVQQLLEAWRKQEKQTARHKASAAPGKNASGEDEVLLGARPRPRKPSFLKALLATFGSSFLISACFKLIQDLLSFINPQLLSILIRFISNPMAPSWWGFLVAGLMFLCSMMQSLILQHYYHYIFVTGVKFRTGIMGVIYRKALVITNSVKRASTVGEIVNLMSVDAQRFMDLAPFLNLLWSAPLQIILAIYFLWQNLGPSVLAGVAFMVLLIPLNGAVAVKMRAFQVKQMKLKDSRIKLMSEILNGIKVLKLYAWEPSFLKQVEGIRQGELQLLRTAAYLHTTTTFTWMCSPFLVTLITLWVYVYVDPNNVLDAEKAFVSVSLFNILRLPLNMLPQLISNLTQASVSLKRIQQFLSQEELDPQSVERKTISPGYAITIHSGTFTWAQDLPPTLHSLDIQVPKGALVAVVGPVGCGKSSLVSALLGEMEKLEGKVHMKGSVAYVPQQAWIQNCTLQENVLFGKALNPKRYQQTLEACALLADLEMLPGGDQTEIGEKGINLSGGQRQRVSLARAVYSDADIFLLDDPLSAVDSHVAKHIFDHVIGPEGVLAGKTRVLVTHGISFLPQTDFIIVLADGQVSEMGPYPALLQRNGSFANFLCNYAPDEDQGHLEDSWTALEGAEDKEALLIEDTLSNHTDLTDNDPVTYVVQKQFMRQLSALSSDGEGQGRPVPRRHLGPSEKVQVTEAKADGALTQEEKAAIGTVELSVFWDYAKAVGLCTTLAICLLYVGQSAAAIGANVWLSAWTNDAMADSRQNNTSLRLGVYAALGILQGFLVMLAAMAMAAGGIQAARVLHQALLHNKIRSPQSFFDTTPSGRILNCFSKDIYVVDEVLAPVILMLLNSFFNAISTLVVIMASTPLFTVVILPLAVLYTLVQRFYAATSRQLKRLESVSRSPIYSHFSETVTGASVIRAYNRSRDFEIISDTKVDANQRSCYPYIISNRWLSIGVEFVGNCVVLFAALFAVIGRSSLNPGLVGLSVSYSLQVTFALNWMIRMMSDLESNIVAVERVKEYSKTETEAPWVVEGSRPPEGWPPRGEVEFRNYSVRYRPGLDLVLRDLSLHVHGGEKVGIVGRTGAGKSSMTLCLFRILEAAKGEIRIDGLNVADIGDPILFSGTLRMNLDPFGSYSEEDIWWALELSHLHTFVSSQPAGLDFQCSEGGENLSVGQRQLVCLARALLRKSRILVLDEATAAIDLETDNLIQATIRTQFDTCTVLTIAHRLNTIMDYTRVLVLDKGVVAEFDSPANLIAARGIFYGMARDAGLA | 2.9 µM | 910 µM |  | 
Multidrug resistance-associated protein 1 (Homo sapiens) (protein) MALRGFCSADGSDPLWDWNVTWNTSNPDFTKCFQNTVLVWVPCFYLWACFPFYFLYLSRHDRGYIQMTPLNKTKTALGFLLWIVCWADLFYSFWERSRGIFLAPVFLVSPTLLGITMLLATFLIQLERRKGVQSSGIMLTFWLVALVCALAILRSKIMTALKEDAQVDLFRDITFYVYFSLLLIQLVLSCFSDRSPLFSETIHDPNPCPESSASFLSRITFWWITGLIVRGYRQPLEGSDLWSLNKEDTSEQVVPVLVKNWKKECAKTRKQPVKVVYSSKDPAQPKESSKVDANEEVEALIVKSPQKEWNPSLFKVLYKTFGPYFLMSFFFKAIHDLMMFSGPQILKLLIKFVNDTKAPDWQGYFYTVLLFVTACLQTLVLHQYFHICFVSGMRIKTAVIGAVYRKALVITNSARKSSTVGEIVNLMSVDAQRFMDLATYINMIWSAPLQVILALYLLWLNLGPSVLAGVAVMVLMVPVNAVMAMKTKTYQVAHMKSKDNRIKLMNEILNGIKVLKLYAWELAFKDKVLAIRQEELKVLKKSAYLSAVGTFTWVCTPFLVALCTFAVYVTIDENNILDAQTAFVSLALFNILRFPLNILPMVISSIVQASVSLKRLRIFLSHEELEPDSIERRPVKDGGGTNSITVRNATFTWARSDPPTLNGITFSIPEGALVAVVGQVGCGKSSLLSALLAEMDKVEGHVAIKGSVAYVPQQAWIQNDSLRENILFGCQLEEPYYRSVIQACALLPDLEILPSGDRTEIGEKGVNLSGGQKQRVSLARAVYSNADIYLFDDPLSAVDAHVGKHIFENVIGPKGMLKNKTRILVTHSMSYLPQVDVIIVMSGGKISEMGSYQELLARDGAFAEFLRTYASTEQEQDAEENGVTGVSGPGKEAKQMENGMLVTDSAGKQLQRQLSSSSSYSGDISRHHNSTAELQKAEAKKEETWKLMEADKAQTGQVKLSVYWDYMKAIGLFISFLSIFLFMCNHVSALASNYWLSLWTDDPIVNGTQEHTKVRLSVYGALGISQGIAVFGYSMAVSIGGILASRCLHVDLLHSILRSPMSFFERTPSGNLVNRFSKELDTVDSMIPEVIKMFMGSLFNVIGACIVILLATPIAAIIIPPLGLIYFFVQRFYVASSRQLKRLESVSRSPVYSHFNETLLGVSVIRAFEEQERFIHQSDLKVDENQKAYYPSIVANRWLAVRLECVGNCIVLFAALFAVISRHSLSAGLVGLSVSYSLQVTTYLNWLVRMSSEMETNIVAVERLKEYSETEKEAPWQIQETAPPSSWPQVGRVEFRNYCLRYREDLDFVLRHINVTINGGEKVGIVGRTGAGKSSLTLGLFRINESAEGEIIIDGINIAKIGLHDLRFKITIIPQDPVLFSGSLRMNLDPFSQYSDEEVWTSLELAHLKDFVSALPDKLDHECAEGGENLSVGQRQLVCLARALLRKTKILVLDEATAAVDLETDDLIQSTIRTQFEDCTVLTIAHRLNTIMDYTRVIVLDKGEIQEYGAPSDLLQQRGLFYSMAKDAGLV |  |  | 1.4 µM | 930 µM
